# pIC50: −log10 of the molar value. No end group written: not given here.
# Tests used:
# [1] = target: T1, HLA-B*0702 (Homo sapiens, UniProt P01889); assay: purified HLA class I binding assay, B*0702; conditions: for B*0702 (binding information): HIV B07 supermotif peptides, binding value for purified HLA-B*0702, unit not given; for B*0702 binding (HIV B07 Super Motif Peptides with Binding Information): purified HLA-B*0702, binding value without unit
# T1 construct: endogenous in cells; host or cells: GM3107
# [2] = target: T2, HLA-A*0301 (Homo sapiens, UniProt P04439); assay: purified HLA class I binding assay, A*0301
# T2 construct: endogenous in cells; host or cells: GM3107
# [3] = target: HLA-A*1101 (Homo sapiens, UniProt P04439, A114D/D185E/E176A/F33Y/L180Q/S129P/T187R); assay: purified HLA class I binding assay, A*1101; conditions: for A*1101 binding: HIV A11 motif peptides (GAG)
# [4] = target: HLA-A*0201 (Homo sapiens, UniProt P04439, D140Y/D185E/D98H/E176V/E277Q/G131W/G231S/I119V/I121R/I166T/I218V/L300P/L318F/N151K/N90K/P208A/P217A/Q86G/Q94H/R138H/R169H/T345S); assay: purified HLA class I binding assay, A*0201; conditions: Table VIII; for A*0201 (binding information): unit not given
# [5] = Table XVI, binding value for purified HLA-A*0301, unit not given
# [6] = Table XVII, HIV A11 motif peptides, binding value A*1101, unit not given
# [7] = HIV A02 Super Motif Peptides with Binding Information
# [8] = Table IX, HIV A03 super motif peptides, binding value, unit not given
# [9] = HIV A11 motif peptides, Table XVII, unit not given
# [10] = HIV A03 supermotif peptides, Table IX, unit not given
# [11] = Table XVII, HIV A11 motif peptides, binding value for A*1101, printed without unit
# [12] = Table XVII, HIV A11 motif peptides, binding value for purified HLA-A*1101, unit not given
# [13] = binding value to purified HLA-A*1101 in Table XVII, unit not given
# [14] = HIV A03 motif peptides, Table XVI, binding value unit not given
# [15] = HIV POL-derived A03 motif peptides, binding value for purified HLA-A*0301, unit not given
# [16] = HIV A03 supermotif peptides, binding value, no unit given
# [17] = Table XVI, HIV POL-derived peptides, unit not given
sequence,measurement,setting,value
IIPGSQPKTA,B*0702 (binding information),[1],0.0007
TAVQMAVFIII,"A0301 (binding information, HIV A03 motif peptides)",[2]; [5],0.0004
same,A*1101 (binding information),[3]; [6],0.0110
LYSAGIRKYL,A*0201 (binding information),[4]; HIV A02 supermotif peptides,0.0002
CVKLTPLCV,A*0201 (binding information),[4]; [7],0.0002
KLVDFRELNK,A*0301 binding information,[2]; [8],0.5100
same,"A0301 (binding information, HIV A03 motif peptides)",[2]; [5],0.5100
same,A*1101 (binding information),[3]; [9],0.0900
same,A*1101 (binding information),[3]; [8],0.0900
YVDRIFYKTLR,A*0301 binding information,[2]; [10],0.0003
same,A*1101 (binding information),[3]; [10],0.0006
KTKGIIRGSII,A*1101 (binding information),[3]; [11],0.0001
DPEIVMIISF,B*0702 binding (HIV B07 Super Motif Peptides with Binding Information),[1],0.0001
IVASCDKCQL,A*0201 (binding information),[4]; HIV A02 supermotif peptides,0.0006
MVEQMIIEDI,A*0201 (binding information),[4]; [7],0.0002
EPPFLWMGYE,B*0702 (binding information),[1],0.0001
KAYDTEVIINV,A*0201 (binding information),[4]; HIV A02 super motif peptides,0.0013
GIPIIPAGLK,A*1101 (binding information),[3]; [6],0.0650
ATLYCVIIQR,A*0301 binding information,[2]; [10],0.0150
same,A0301 (HIV A03 Motif Peptides with Binding Information),"[2]; binding value to purified HLA-A*0301, unit not given",0.0150
same,A*1101 (binding information),[3]; [10],0.7100
same,A*1101 binding,"[3]; Table XVII, unit not given",0.7100
HPVIIAGPI,B*0702 binding (HIV B07 Super Motif Peptides with Binding Information),[1],0.0012
TYQCTIIGIK,A*1101 (binding information),[3]; [12],0.0460
IPVGEIYKRW,B*0702 binding (HIV B07 Super Motif Peptides with Binding Information),[1],0.0002
IIGVYYDPSK,A*1101 (binding information),[3]; [6],0.0001
LTEDRWNKPQ,A0301 (binding information),"[2]; HIV A03 motif peptides, Table XVI, unit not given",0.0390
same,A*1101 (binding information),[3]; [11],0.0130
EPFKNLKTGK,B*0702 (binding information),[1],0.0001
NTPVPAIK,A*1101 (HIV A11 Motif Peptides with Binding Information),[3]; [13],0.0003
IPMFSALSIEGA,B*0702 binding (HIV B07 Super Motif Peptides with Binding Information),[1],0.0004
VPVWKEATTT,B*0702 binding (HIV B07 Super Motif Peptides with Binding Information),[1],0.0022
EVIINVWATIIA,A*0201 (binding information),[4]; HIV A02 super motif peptides,0.0001
KIWPSIIKGR,A0301 (binding information),[2]; [14],0.0770
ISPILTVPVK,A*1101 (binding information),[3]; [6],0.0310
GPGIIKARVLA,B*0702 binding (HIV B07 Super Motif Peptides with Binding Information),[1],0.0002
RIVELLGRR [1273.04],pIC50,[2],6.70
same,pIC50,[3],6.22
MTKILIEPFR,A*1101 (binding information),[3]; [6],0.0160
WTVQVIPLPEK,A0301 (binding information),"[2]; HIV A03 motif peptides, binding value to HLA-A*0301 as printed, no unit given",0.0011
KVKQWPLTEE,A0301 (HIV A03 Motif Peptides with Binding Information),[2]; [15],0.0750
same,A*1101 (binding information),[3]; [6],0.0330
VIQDNSEIKV,A*0201 binding,"[4]; HIV A02 supermotif peptides, binding value with unit not given",0.0013
SPRTLNAWYK,B*0702 binding (HIV B07 Super Motif Peptides with Binding Information),[1],0.0076
GPAATLEEMM,B*0702 binding (HIV B07 Super Motif Peptides with Binding Information),[1],0.0020
EPFREYVIIRF,B*0702 binding (HIV B07 Super Motif Peptides with Binding Information),[1],0.0001
FLGKIWPSIIK,A0301 (binding information),[2]; [14],0.0200
same,A*1101 binding,"[3]; Table XVII, unit not given",0.0013
LPGRWKPKM,B*0702 (binding information),[1],0.0038
PCIMDGPKVK,A*1101 (binding information),[3]; [6],0.0001
DTEYIINVWAT,A*0201 (binding information),[4]; HIV A02 super motif peptides,0.0001
SPTRKELQVW,B*0702 (binding information),[1],0.0025
QLDCTIILEGK,"A0301 (binding information, HIV A03 motif peptides)",[2]; [5],0.0010
same,A*1101 (binding information),[3]; [6],0.0003
VPIDPNPQEV,B*0702 binding (HIV B07 Super Motif Peptides with Binding Information),[1],0.0008
TPGIRYQYNV,B*0702 (binding information),[1],0.0004
VPLDKDFRKY,B*0702 (binding information),[1],0.0002
AVDLSIIFLK,A0301 (binding information),"[2]; HIV A03 motif peptides, Table XVI, binding value to purified HLA-A*0301, unit not given",0.0740
same,A*1101 (binding information),[3]; [9],1.1000
NPQSQGVVES,B*0702 (binding information),[1],0.0001
IIVASGYIEA,A0301 (HIV A03 Motif Peptides with Binding Information),[2]; [15],0.0003
QIYQEPPKNLK,A*0301 binding information,[2]; [16],0.2800
same,A*1101 (binding information),[3]; [16],0.2900
APTKAKRRVV,B*0702 binding (HIV B07 Super Motif Peptides with Binding Information),[1],0.1200
KVYLAWVPAII,A0301 binding,"[2]; HIV A03 motif peptides, Table XVI, column A0301, unit not given",8.6000
LYSAGIRK,A*1101 (HIV A11 Motif Peptides with Binding Information),"[3]; binding to purified HLA-A*1101, unit not given",0.0054
IIPDKWTVQPI,B*0702 (binding information),[1],0.0012
IPIIIYCAPA,B*0702 binding (HIV B07 Super Motif Peptides with Binding Information),[1],0.0130
EPFRDYVDRP,B*0702 binding (HIV B07 Super Motif Peptides with Binding Information),[1],0.00012
NPDIVIYQYM,B*0702 (binding information),[1],0.0005
GPKVKQWPL,B*0702 (binding information),[1],0.0150
EPIPIIIYCA,B*0702 binding (HIV B07 Super Motif Peptides with Binding Information),[1],0.0001
IIPVIIAGPIA,B*0702 binding (HIV B07 Super Motif Peptides with Binding Information),[1],0.0590
GIPIIPAGLKK,A0301 (HIV A03 Motif Peptides with Binding Information),[2]; [15],0.0110
same,A*1101 (binding information),[3]; [6],0.1700
FVNIPPLVK,A*1101 (binding information),[3]; [6],0.0660
EPIVGAEIP,B*0702 (binding information),[1],0.0001
QVRDQAEIILK,A0301 (HIV A03 Motif Peptides with Binding Information),[2]; [15],0.0089
VASCDKCQLK,A0301 (HIV A03 Motif Peptides with Binding Information),[2]; [15],0.0004
same,A*0301 binding information,[2]; [8],0.0004
same,A*1101 (binding information),[3]; [8],0.0004
same,A*1101 (binding information),[3]; [6],0.0004
TTPDKKIIQK,A0301 (HIV A03 Motif Peptides with Binding Information),[2]; [15],0.0002
GPGIIKARV,B*0702 binding (HIV B07 Super Motif Peptides with Binding Information),[1],0.0002
DVKQLTEAVQ,"A0301 (binding information, HIV A03 motif peptides)",[2]; [17],0.0048
same,A*1101 (HIV A11 Motif Peptides with Binding Information),[3]; [13],0.0240
MVIIQAISPR,A0301 (binding information),[2]; [14],0.1800
same,A*1101 binding,"[3]; Table XVII, unit not given",0.0670
LGIIQAQVDK,"A0301 (binding information, HIV A03 motif peptides)",[2]; [17],0.0007
ANRIETKLGK,A*1101 (HIV A11 Motif Peptides with Binding Information),[3]; [13],0.0001
QIYQIEPFKNLK,"A0301 (binding information, HIV A03 motif peptides)",[2]; [17],0.2800
TPPLVKLWYQ,B*0702 (binding information),[1],0.0001
VAVIIVASGY,"A0301 (binding information, HIV A03 motif peptides)",[2]; [5],0.0004
same,A*1101 (binding information),[3]; [6],0.0001
MGYELIIPDK,"A0301 (binding information, HIV A03 motif peptides)",[2]; [5],0.0640
GIIQAQVDK,"A0301 (binding information, HIV A03 motif peptides)",[2]; [17],0.0009
LGIPIIPAGLK,A*1101 (binding information),[3]; [6],0.0150
QPDKSESEIV,B*0702 (binding information),[1],0.0002
HPAGLKKKKS,B*0702 (binding information),[1],0.0001
KVYLAWVPAIIK,A*0301 binding information,[2]; [16],8.6000
same,A*1101 (binding information),[3]; [16],2.3000
KPCVKLTPLC,B*0702 binding (HIV B07 Super Motif Peptides with Binding Information),[1],0.0004
TACQGVGGPG,A0301 (binding information),[2]; [14],0.0001
same,A*1101 (binding information),[3]; [9],0.0001
ILQQLLFIIIF,"A0301 (binding information, HIV A03 motif peptides)","[2]; Table XVI, binding value for HLA-A*0301, unit not given",0.0130
EPVIIGVYY,B*0702 binding (HIV B07 Super Motif Peptides with Binding Information),[1],0.0001
AANREIKLGK,A*1101 (HIV A11 Motif Peptides with Binding Information),[3]; [13],0.0016
SDLEIGQIIR,A*1101 (binding information),[3]; [6],0.0001
VPRRKAKII,B*0702 (binding information),[1],0.4800
LPEKDSWTV,B*0702 (binding information),[1],0.0001
WTYQIYQEPF,"A0301 (binding information, HIV A03 motif peptides)",[2]; [17],0.9200
same,A*1101 (HIV A11 Motif Peptides with Binding Information),[3]; [13],0.0540
LLQLIVWGIK,A*0301 binding information,[2]; [10],0.0055
same,A*1101 (binding information),[3]; [10],0.0110
IVASCDKCQLK,A*0301 binding information,[2]; [16],0.0970
same,A0301 (HIV A03 Motif Peptides with Binding Information),[2]; [15],0.0970
same,A*1101 (binding information),[3]; [16],0.1000
same,A*1101 (binding information),[3]; [6],0.1000
VTVYYGVPVW,"A0301 (binding information, HIV A03 motif peptides)","[2]; purified HLA-A*0301 binding value as printed in Table XVI, unit not given",0.8600
same,A*1101 (binding information),[3]; [12],4.1000
EPVDPRLEPW,B*0702 (binding information),[1],0.0001
LPQGWKGSPA,B*0702 (binding information),[1],0.0120
IIPRISSEVHI,B*0702 (binding information),[1],0.0330

# Reference: patent US20050271676A1, “Inducing cellular immune responses to human immunodeficiency virus-1 using peptide and nucleic acid compositions” (Epimmune Inc., priority 1993, published 2005)
